Measured values taken from US20190202921A1 (Five Prime, published 2019).
Substitutions are numbered along the chain they refer to. Names and notes keep the numbering of the source.

T1: mouse CSF1R ECD (mouse, UniProt P09581 20-515)
T1 construct: extracellular domain
T1 sequence (looked up): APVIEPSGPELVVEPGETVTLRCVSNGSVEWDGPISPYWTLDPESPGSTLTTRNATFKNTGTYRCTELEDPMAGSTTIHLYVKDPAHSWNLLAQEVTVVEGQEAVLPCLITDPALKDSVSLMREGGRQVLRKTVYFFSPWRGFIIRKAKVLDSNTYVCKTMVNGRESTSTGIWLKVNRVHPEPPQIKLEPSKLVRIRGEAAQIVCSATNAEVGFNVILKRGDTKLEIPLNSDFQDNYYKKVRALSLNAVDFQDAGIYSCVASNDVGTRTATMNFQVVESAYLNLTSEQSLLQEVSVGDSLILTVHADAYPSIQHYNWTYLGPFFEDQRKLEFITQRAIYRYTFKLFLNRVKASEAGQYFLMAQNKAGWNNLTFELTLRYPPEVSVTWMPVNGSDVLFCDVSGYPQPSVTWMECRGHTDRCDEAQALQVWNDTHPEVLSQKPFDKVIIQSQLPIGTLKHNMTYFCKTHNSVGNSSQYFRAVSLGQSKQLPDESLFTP

T2: cynomolgus monkey CSF1R ECD (cynomolgus monkey, UniProt P07333 20-505 (human entry))
T2 construct: also called cynoCSF1R ECD
T2 chain: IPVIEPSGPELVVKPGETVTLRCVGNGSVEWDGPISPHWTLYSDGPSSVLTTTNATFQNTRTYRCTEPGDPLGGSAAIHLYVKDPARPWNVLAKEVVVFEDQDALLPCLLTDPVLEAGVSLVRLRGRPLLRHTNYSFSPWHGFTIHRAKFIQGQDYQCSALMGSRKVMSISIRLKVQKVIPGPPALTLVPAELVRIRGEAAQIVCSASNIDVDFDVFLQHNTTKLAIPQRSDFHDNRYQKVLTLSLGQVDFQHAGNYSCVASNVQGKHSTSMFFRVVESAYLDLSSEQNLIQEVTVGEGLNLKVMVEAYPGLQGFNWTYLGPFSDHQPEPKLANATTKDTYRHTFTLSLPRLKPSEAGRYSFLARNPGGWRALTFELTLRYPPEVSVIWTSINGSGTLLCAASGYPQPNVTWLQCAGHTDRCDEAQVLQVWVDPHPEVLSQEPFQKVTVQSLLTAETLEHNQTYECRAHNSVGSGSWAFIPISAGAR

T3: rat PD-1 (rat, UniProt D3ZIN8 25-287)
T3 sequence: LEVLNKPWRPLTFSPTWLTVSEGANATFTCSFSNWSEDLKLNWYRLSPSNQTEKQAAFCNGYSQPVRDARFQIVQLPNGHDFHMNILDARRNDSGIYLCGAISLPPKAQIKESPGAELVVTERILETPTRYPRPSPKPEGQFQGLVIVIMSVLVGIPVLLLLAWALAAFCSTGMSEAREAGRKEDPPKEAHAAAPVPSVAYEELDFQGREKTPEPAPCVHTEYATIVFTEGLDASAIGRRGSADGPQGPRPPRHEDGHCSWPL

B1: huAb2 (antibody, human IgG4 S228P, kappa)
heavy: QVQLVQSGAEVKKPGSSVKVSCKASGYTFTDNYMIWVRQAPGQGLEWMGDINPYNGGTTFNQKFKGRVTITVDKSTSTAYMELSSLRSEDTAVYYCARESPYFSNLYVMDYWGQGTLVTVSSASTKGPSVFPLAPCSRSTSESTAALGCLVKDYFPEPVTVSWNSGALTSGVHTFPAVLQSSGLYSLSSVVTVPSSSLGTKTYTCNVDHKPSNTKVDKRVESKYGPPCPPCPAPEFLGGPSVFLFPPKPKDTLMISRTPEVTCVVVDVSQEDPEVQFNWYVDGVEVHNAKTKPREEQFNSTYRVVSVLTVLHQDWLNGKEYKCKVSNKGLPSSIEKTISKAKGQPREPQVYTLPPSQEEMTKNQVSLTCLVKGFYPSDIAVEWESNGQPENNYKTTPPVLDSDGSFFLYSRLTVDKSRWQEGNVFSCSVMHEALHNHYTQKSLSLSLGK
light: EIVLTQSPATLSLSPGERATLSCKASQSVDYDGDNYMNWYQQKPGQAPRLLIYAASNLESGIPARFSGSGSGTDFTLTISSLEPEDFAVYYCHLSNEDLSTFGGGTKVEIKRTVAAPSVFIFPPSDEQLKSGTASVVCLLNNFYPREAKVQWKVDNALQSGNSQESVTEQDSKDSTYSLSSTLTLSKADYEKHKVYACEVTHQGLSSPVTKSFNRGEC
notes: also called huAb 0301-L0H1; h0301-H1 / h0301-L0
B2: huAb1 (antibody, human IgG4 S228P, kappa)
heavy: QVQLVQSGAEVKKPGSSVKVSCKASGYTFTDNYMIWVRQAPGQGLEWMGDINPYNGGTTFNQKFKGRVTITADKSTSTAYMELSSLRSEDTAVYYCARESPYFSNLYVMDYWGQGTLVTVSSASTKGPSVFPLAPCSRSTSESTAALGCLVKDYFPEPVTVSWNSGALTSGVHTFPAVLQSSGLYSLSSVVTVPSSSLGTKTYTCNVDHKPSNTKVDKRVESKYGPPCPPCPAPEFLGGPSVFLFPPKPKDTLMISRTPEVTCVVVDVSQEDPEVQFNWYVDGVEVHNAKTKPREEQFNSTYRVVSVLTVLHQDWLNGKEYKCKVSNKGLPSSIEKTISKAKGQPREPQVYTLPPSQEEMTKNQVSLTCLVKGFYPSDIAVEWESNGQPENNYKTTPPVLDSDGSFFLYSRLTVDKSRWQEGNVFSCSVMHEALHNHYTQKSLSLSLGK
light: B1 light
notes: also called huAb 0301-L0H0; FPA008
B3: huAb3 (antibody, human IgG4 S228P, kappa)
heavy: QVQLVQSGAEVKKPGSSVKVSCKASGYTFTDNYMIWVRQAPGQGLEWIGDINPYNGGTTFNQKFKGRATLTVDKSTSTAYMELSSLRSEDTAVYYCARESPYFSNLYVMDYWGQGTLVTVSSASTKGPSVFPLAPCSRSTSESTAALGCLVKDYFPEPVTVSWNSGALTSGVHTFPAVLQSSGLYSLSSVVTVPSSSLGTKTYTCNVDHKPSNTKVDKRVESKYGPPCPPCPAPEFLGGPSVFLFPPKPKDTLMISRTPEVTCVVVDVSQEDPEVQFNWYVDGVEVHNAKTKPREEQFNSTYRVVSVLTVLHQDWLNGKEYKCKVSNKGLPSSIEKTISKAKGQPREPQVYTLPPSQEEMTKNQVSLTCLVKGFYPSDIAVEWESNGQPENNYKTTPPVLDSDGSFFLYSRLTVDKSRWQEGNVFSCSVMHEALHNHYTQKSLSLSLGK
light: B1 light
notes: also called huAb 0301-L0H2; h0301-H2 / h0301-L0
B4: huAb4 (antibody, human IgG4 S228P, kappa)
heavy: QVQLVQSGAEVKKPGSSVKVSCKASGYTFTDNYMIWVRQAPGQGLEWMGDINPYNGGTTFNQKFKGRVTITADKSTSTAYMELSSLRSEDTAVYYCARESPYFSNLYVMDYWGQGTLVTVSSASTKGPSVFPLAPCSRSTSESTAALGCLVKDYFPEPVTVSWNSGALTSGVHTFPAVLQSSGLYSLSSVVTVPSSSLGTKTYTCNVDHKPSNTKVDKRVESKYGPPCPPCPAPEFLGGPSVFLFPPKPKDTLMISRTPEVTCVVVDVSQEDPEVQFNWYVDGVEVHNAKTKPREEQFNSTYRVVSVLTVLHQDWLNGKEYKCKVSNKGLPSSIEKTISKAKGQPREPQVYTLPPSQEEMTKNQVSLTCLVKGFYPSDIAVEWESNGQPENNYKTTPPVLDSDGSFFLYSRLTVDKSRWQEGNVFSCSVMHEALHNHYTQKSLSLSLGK
light: B1 light with E1N
notes: also called huAb 0301-L1H0; h0301-H0 / h0301-L1
B5: huAb5 (antibody, human IgG4 S228P, kappa)
heavy: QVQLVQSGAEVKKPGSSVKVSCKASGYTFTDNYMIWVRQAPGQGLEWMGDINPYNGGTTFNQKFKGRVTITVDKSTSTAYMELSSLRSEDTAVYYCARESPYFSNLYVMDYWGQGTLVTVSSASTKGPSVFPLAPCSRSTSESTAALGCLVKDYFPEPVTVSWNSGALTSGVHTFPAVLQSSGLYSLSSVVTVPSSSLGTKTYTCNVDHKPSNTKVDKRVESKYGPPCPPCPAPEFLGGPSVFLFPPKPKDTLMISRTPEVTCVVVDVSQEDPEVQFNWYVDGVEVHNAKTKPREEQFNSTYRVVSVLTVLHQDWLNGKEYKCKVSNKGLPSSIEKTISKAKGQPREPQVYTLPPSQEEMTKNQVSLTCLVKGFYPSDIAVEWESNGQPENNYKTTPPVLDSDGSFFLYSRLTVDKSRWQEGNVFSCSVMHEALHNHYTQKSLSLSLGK
light: B1 light with E1N
notes: also called huAb 0301-L1H1; h0301-H1 / h0301-L1
B6: huAb6 (antibody, human IgG4 S228P, kappa)
heavy: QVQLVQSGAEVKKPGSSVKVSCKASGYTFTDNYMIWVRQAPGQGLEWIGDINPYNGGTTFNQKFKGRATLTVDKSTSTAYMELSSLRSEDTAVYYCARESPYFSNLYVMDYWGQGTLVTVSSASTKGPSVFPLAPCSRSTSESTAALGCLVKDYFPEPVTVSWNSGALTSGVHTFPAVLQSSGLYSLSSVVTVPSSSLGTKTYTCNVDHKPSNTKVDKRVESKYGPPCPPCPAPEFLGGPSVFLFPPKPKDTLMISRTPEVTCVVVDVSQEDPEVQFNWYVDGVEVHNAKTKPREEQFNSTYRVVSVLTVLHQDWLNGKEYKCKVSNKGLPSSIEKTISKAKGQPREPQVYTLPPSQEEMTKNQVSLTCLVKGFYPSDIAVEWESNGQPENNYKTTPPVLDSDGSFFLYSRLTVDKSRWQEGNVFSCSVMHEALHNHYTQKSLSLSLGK
light: B1 light with E1N
notes: also called huAb 0301-L1H2; h0301-H2 / h0301-L1
B7: huAb8 (antibody, human IgG4 S228P, kappa, V domains shown)
VH: QVQLVQSGAEVKKPGSSVKVSCKASGYTFSDFNIHWVRQAPGQGLEWMGYINPYTDVTVYNEKFKGRVTITSDKSTSTAYMELSSLRSEDTAVYYCASYFDGTFDYALDYWGQGTLVTVSS
VL: EIVLTQSPATLSLSPGERATLSCRASESVDNYGLSFMNWYQQKPGQAPRLLIYTASNLESGIPARFSGSGSRTDFTLTISSLEPEDFAVYYCQQSKELPWTFGQGTKVEIKR
notes: also called huAb 0302-L1H1; h0302-H1 / h0302-L1
B8: huAb7 (antibody, human IgG4 S228P, kappa, V domains shown)
VH: B7 VH
VL: B7 VL with R72G
notes: also called huAb 0302-L0H1; h0302-H1 / h0302-L0
B9: huAb9 (antibody, human IgG4 S228P, kappa, V domains shown)
VH: B7 VH
VL: B7 VL with L4V, Y40F
notes: also called huAb 0302-L2H1; h0302-H1 / h0302-L2
B10: huAb10 (antibody, human IgG4 S228P, kappa, V domains shown)
VH: B7 VH with M48I, V68A, I70L
VL: B7 VL with R72G
notes: also called huAb 0302-L0H2; h0302-H2 / h0302-L0
B11: huAb11 (antibody, human IgG4 S228P, kappa, V domains shown)
VH: B7 VH with M48I, V68A, I70L
VL: B7 VL
notes: also called huAb 0302-L1H2; h0302-H2 / h0302-L1
B12: huAb12 (antibody, human IgG4 S228P, kappa, V domains shown)
VH: B7 VH with M48I, V68A, I70L
VL: B7 VL with L4V, Y40F
notes: also called huAb 0302-L2H2; h0302-H2 / h0302-L2
B13: huAb13 (antibody, human IgG4 S228P, kappa, V domains shown)
VH: QVQLVQSGAEVKKPGSSVKVSCKASGYIFTDYNMHWVRQAPGQGLEWMGEINPNNGVVVYNQKFKGRVTITVDKSTSTAYMELSSLRSEDTAVYYCTRALYHSNFGWYFDSWGQGTLVTVSS
VL: B7 VL with R24K, E27Q, N31Y, Y32D, L34D, F36H, R72G, S95G, K96N, L98D
notes: also called huAb 0311-L0H1; h0311-H1 / h0311-L0
B14: huAb14 (antibody, human IgG4 S228P, kappa, V domains shown)
VH: B13 VH
VL: DIVLTQSPATLSLSPGERATLSCKASQSVDYDGDSHMNWYQQKPGQAPRLLIYTASNLESGIPARFSGSGSGADFTLTISSLEPEDFAVYYCQQGNEDPWTFGQGTKVEIKR
notes: also called huAb 0311-L1H1; h0311-H1 / h0311-L1
B15: huAb15 (antibody, human IgG4 S228P, kappa, V domains shown)
VH: B13 VH with R67T, V68T, I70L
VL: B14 VL with D1E, A73T
notes: also called huAb 0311-L0H2; h0311-H2 / h0311-L0
B16: huAb16 (antibody, human IgG4 S228P, kappa, V domains shown)
VH: B13 VH with R67T, V68T, I70L
VL: B14 VL
notes: also called huAb 0311-L1H2; h0311-H2 / h0311-L1
B17: nivolumab (antibody, human IgG4 S228P, kappa, V domains shown)
VH: QVQLVESGGGVVQPGRSLRLDCKASGITFSNSGMHWVRQAPGKGLEWVAVIWYDGSKRYYADSVKGRFTISRDNSKNTLFLQMNSLRAEDTAVYYCATNDDYWGQGTLVTVSS
VL: EIVLTQSPATLSLSPGERATLSCRASQSVSSYLAWYQQKPGQAPRLLIYDASNRATGIPARFSGSGSGTDFTLTISSLEPEDFAVYYCQQSSNWPRTFGQGTKVEIKR
notes: Fully human IgG4 (S228P); also called Opdivo; 5C4

Tests used:
mouse CSF1R ECD = molecular target: T1, mouse CSF1R ECD; assay: binding test as described in WO 2011/140249
[1] = molecular target: T2, cynomolgus monkey CSF1R ECD; assay: binding test as described in WO 2011/140249
rat PD-1 = molecular target: T3, rat PD-1; assay: FACS analysis

Row | Binder | binding result (mouse CSF1R ECD) | binding result [1] | binding result (rat PD-1)
1 | B1 | no binding | binds | 
2 | B2 | no binding | binds | 
3 | B3 | no binding | binds | 
4 | B4 | no binding | binds | 
5 | B5 | no binding | binds | 
6 | B6 | no binding | binds | 
7 | B7 | no binding | binds | 
8 | B8 | no binding | binds | 
9 | B9 | no binding | binds | 
10 | B10 | no binding | binds | 
11 | B11 | no binding | binds | 
12 | B12 | no binding | binds | 
13 | B13 | no binding | binds | 
14 | B14 | no binding | binds | 
15 | B15 | no binding | binds | 
16 | B16 | no binding | binds | 
17 | B17 |  |  | no binding
